Entries after “also recorded” stand apart in the source; their conditions may differ.
Assays:
[1] = tested on: Nicotiana tabacum cv. Delgold pollen; experiment: In vitro germination of tobacco pollen; assay type: cell-based; conditions: 42 μM papain, 71 μM cycloheximide; for effect on germination and pollen tube growth: 30 μM onchocystatin added to 42 μM papain; for Average Pollen Tube Length / Pollen Germination: 3 h culture, 25° C, 30 μM onchocystatin, 1 mg/ml casein
Protocol: Pollen from Nicotiana tabacum cv. Delgold was harvested by placing 5 dehiscent anthers in 1 ml of sterile Brewbaker and Kwack medium (Brewbaker, J. and Kwack, B. Amer. J. Bot. 50: 859-865 (1963)) containing various concentrations of cylcoheximide, or papain, or casein. The medium consisted of 10% w/v sucrose, 100 ppm H3BO3, 300 ppm Ca (NO3)2.4H2O, 200 ppm MgSO4.7H2O, and 100 ppm KNO3 with either 42 μM papain (twice crystallized, Sigma), with or without 30 μM recombinant onchocystatin, or 71 μM cycloheximide (Sigma), or 1 mg/ml casein. Anthers were vortexed in medium for 30 sec followed by centrifugation at 2,000 rpm for 2 min. Pollen was cultured in 50 μl drops in sterile 15×60 mm petri dishes at 25° C. The percentage of pollen grains germinated after 3 h of culture was measured and the average pollen tube length was recorded using an ocular micrometer on an inverted microscope.

papain [2] = biological target: papain (Carica papaya, UniProt P00784); experiment: Protease inhibition assay (papain, Pyr-Phe-Leu-pNA); assay type: biochemical; conditions: 20 ng papain, 2 to 3 h, read at 410 nm
Protocol: (§1) Mature pollen was isolated by gently squeezing anthers from open flowers just prior to anther dehiscence in a microfuge tube with a pestle to release the pollen grains and suspend them in extraction buffer (100 mM HEPES pH 7.5, 10 mM KCl, 1 mM MgCl2, 1 mM EDTA, 1 mM DTT, 0.4 M sucrose, 0.01% Triton X-100). Pollen grains were filtered through […] mesh to remove debris, pelleted by centrifugation and frozen in liquid nitrogen. Pollen grains were ground to a fine powder, mixed with 1.4 μl per anther of extraction buffer (100 mM MES pH 6.5, 1% Triton X-100) and centrifuged at 4° C. for 5 min. Protein contents of extracts were determined using the BioRad Protein Assay.
(§2) For the protease inhibition assay, 5 μg of protein extract in 50 μl of extraction buffer described above was added to a microtiter plate followed by 20 ng of papain in 50 μl of 50 mM MES pH6.5 and incubated for 15 min at room temperature. Then 100 μl of substrate solution (1 mM Pyr-Phe-Leu-pNA (BACHEM) in activation buffer (30% DMSO, 1 mM EDTA,.1 mM DTT in 50 mM MES pH 6.5)) was added and the plate incubated in the dark at room temperature. The plate was read after 2 to 3 h of incubation on a plate reader at 410 nm. Results were calculated as the percentage of papain protease activity present in the mature pollen protein extract of the non-transformed control plant±standard deviation. […]

papain [3] = biological target: T1, papain (Carica papaya, UniProt P00784); experiment: Phage ELISA, wells coated with papain; assay type: binding; conditions: well coated with papain
T1 sequence (P00784 whole entry, looked up): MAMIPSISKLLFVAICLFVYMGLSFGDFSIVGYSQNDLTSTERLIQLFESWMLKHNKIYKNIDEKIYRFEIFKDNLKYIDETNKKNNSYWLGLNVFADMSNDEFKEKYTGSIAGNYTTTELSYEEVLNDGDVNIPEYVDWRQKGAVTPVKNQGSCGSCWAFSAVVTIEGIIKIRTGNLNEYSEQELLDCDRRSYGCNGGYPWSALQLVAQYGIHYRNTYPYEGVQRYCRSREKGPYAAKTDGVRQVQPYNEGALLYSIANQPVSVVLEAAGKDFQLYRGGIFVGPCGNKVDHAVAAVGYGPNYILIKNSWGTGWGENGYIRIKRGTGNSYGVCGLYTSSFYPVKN
Protocol: (§3) A SacI and Nco I digest of the coding region of the protease inhibitor clone OV7 (Lustigman et al 1991), is ligated to the pCantab 5E vector (Pharmacia Biotech) Sac I and Nco I sites. This phagemid is transformed into E. coli TG1 cells by electroporation. An overnight culture of 10 μL of these cells are grown in 5 ml of SOBAG medium containing 10 μl of carbenicillin (50 mg/mL) at 28° C. The next day, 0.5 ml of this culture is used to inoculate 25 ml of 2×YT medium, containing 50 μl of carbenicillin (50 mg/ml) and 1.56 ml of 2M glucose and grown for 1.25 h at 37° C., with shaking at 250 rpm. At this point 62.5 μl of helper phage strain M13K07 ([…]) is added and the cells were incubated at 37° C. for 30 min with shaking at 150 rpm, and for another 30 min at 250 rpm. Recombinant phage particles are harvested by centrifugation and PEG precipitation. […]
(§4) After incubating the phage indicated (OV7-those displaying the cysteine protease inhibitor on their surface, M13-wild type or control phage not displaying any foreign protein, and a no phage control) for 2 h, the wells are washed in PBS with 0.5% Tween-20. Phage particles that bound to the antigens are detected with a 1:5000 dilution of anti-M13 antibody/HRP conjugate (Pharmacia). Detection is with the HRP substrate ABTS solution (Pharmacia) for 30 min and absorbance was measured at 410 nm.

anti-OV7 antibodies = experiment: Phage ELISA, wells coated with anti-OV7 antibodies; assay type: binding, rabbit; conditions: well coated with anti-OV7 antibodies; phage diluted 1 in 100
Protocol: as §3, §4

trypsin = experiment: Phage ELISA, wells coated with trypsin; assay type: binding; conditions: well coated with trypsin
Protocol: as §3, §4

[4] = Phage ELISA, no antigen coated in well; assay type: binding
Protocol: as §3, §4

papain [5] = biological target: T1, papain; experiment: Protease inhibition assay (papain, Pyr-Phe-Leu-pNA); assay type: biochemical; conditions: 20 ng papain, 2 to 3 h, read at 410 nm; remark: listed apart in the source
Protocol: as §1, §2

## C[C@@H]1C[C@@H]([C@H](O)CC2CC(=O)NC(=O)C2)C(=O)[C@@H](C)C1 [Cycloheximide, cycloheximide]
[1]
  effect on germination and pollen tube growth: inhibited the germination and elongation of pollen tubes
  Average Pollen Tube Length: 15 μm
  Pollen Germination: 27%

## Casein
[1]
  Average Pollen Tube Length: 95 μm
  Pollen Germination: 74%

## CC(C)C[C@H](NC(=O)[C@H]1O[C@@H]1C(=O)O)C(=O)NCCCCN=C(N)N [E-64, reference compound]
Papain [2]
  percentage of papain protease activity of the non-transformed control plant extract: 3%

B1: OV7: phage displaying the Onchocerca volvulus cysteine protease inhibitor OV7 on their surface as fusion to gene 3 coat protein (protein)
chain: AKNPSKMESKTGENQDRPVLLGGWEDRDPKDEEILELLPSILMKVNEQSNDEYHLMPIKLLKVSSQVVAGVKYKMDVQVARSQCKKSSNEKVDLTKCKKLEGHPEKVMTLEVWEKPWENFMRVEILGTKEV
modifications: left off: large carriers
Papain [3]
  Result: binding specifically to papain
Papain [3]; phage diluted 1 in 100
  O.D.410: 0.788
anti-OV7 antibodies
  O.D.410: 0.451
trypsin
  Result: does not bind to trypsin; also recorded: no OV7-trypsin interaction
trypsin; phage diluted 1 in 100
  O.D.410: 0.037
[4]
  Result: very little OV7-plate
[4]; phage diluted 1 in 100
  O.D.410: 0.125

B2: onchocystatin (OV7): recombinant cysteine protease inhibitor onchocystatin (OV7) from Onchocerca volvulus (protein)
chain: B1 chain
[1]
  effect on germination and pollen tube growth: restored the germination and pollen tube growth

B3: OV7-GST: cysteine protease inhibitor OV7 conjugated to GST (protein)
chain: B1 chain
modifications: left off: a dimerising Fc or GST
Papain [5]
  percentage of papain protease activity of the non-transformed control plant extract: 2%

B4: Papain: cysteine protease papain (twice crystallized, Sigma) (protein, UniProt P00784 134-345, looked up)
Papain: IPEYVDWRQKGAVTPVKNQGSCGSCWAFSAVVTIEGIIKIRTGNLNEYSEQELLDCDRRSYGCNGGYPWSALQLVAQYGIHYRNTYPYEGVQRYCRSREKGPYAAKTDGVRQVQPYNEGALLYSIANQPVSVVLEAAGKDFQLYRGGIFVGPCGNKVDHAVAAVGYGPNYILIKNSWGTGWGENGYIRIKRGTGNSYGVCGLYTSSFYPVKN
[1]
  effect on germination and pollen tube growth: inhibited the germination and stunted the growth of pollen tubes
  Average Pollen Tube Length: 28 μm
  Pollen Germination: 56%

— patent publication US7303917B2, “Modification of pollen coat protein composition” (priority 1998, dated 2007)
